Measurements reported in publication PMC12064060 (mAbs, 2025).

Target: Nb4 × 3 (trimeric Nb4, three VHH domains in tandem) (dromedary)
Assay: ELISA

B1: SARS-CoV-1 RBD-Fc (Fc fusion)
chain: not shown
B1: binds.
